Experimental findings from patent publication US20090117104A1 (published 2009) are described below.

In assay [1] the target is mutated human GLP-2R (human) (UniProt O95838). The assay can be described thus: cell-based or functional assay.
The target in assay [2] is T1, mutated human GLP-2R (human, UniProt O95838 1-553).
T1 chain: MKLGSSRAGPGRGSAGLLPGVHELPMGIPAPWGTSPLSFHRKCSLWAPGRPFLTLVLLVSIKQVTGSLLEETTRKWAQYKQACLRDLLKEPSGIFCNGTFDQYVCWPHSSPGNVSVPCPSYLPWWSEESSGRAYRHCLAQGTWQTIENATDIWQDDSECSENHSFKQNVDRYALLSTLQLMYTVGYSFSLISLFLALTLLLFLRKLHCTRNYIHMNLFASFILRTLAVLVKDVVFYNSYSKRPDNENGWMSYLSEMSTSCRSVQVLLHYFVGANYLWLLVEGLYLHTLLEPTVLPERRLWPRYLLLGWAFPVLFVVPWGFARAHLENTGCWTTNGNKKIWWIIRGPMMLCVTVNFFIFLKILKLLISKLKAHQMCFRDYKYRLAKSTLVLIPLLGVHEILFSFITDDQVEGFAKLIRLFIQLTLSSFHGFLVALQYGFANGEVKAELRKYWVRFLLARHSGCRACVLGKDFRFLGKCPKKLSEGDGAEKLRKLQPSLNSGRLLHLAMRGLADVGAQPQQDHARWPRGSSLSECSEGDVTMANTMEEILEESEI
The assay can be described thus: cell-based or functional assay.

Where a chain is given by its changes, count along the chain named. In names and notes the source's numbering stands. Ends that are not written are not given here.

B1: GLP-2 mimetibody Pro substitution variant, SEQ ID NO: 42 (Fc fusion, not shown: a dimerising Fc or GST)
chain: HGDGSFSDEMNTILDNLAARDFINWLIQTKITDGSGGGSGALVPVSSESKYGPPCPPCP
Regarding B1, the EC50 (nM), cAMP expression assay in assay [1] is 3.6 nM.

B2: GLP-2 mimetibody Pro substitution variant, SEQ ID NO: 44 (Fc fusion, not shown: a dimerising Fc or GST)
chain: B1 chain with P44A, S47P
With B2, the EC50 (nM), cAMP expression assay in assay [1] stood at 7.7 nM.

B3: GLP-2 mimetibody Pro substitution variant, SEQ ID NO: 43 (Fc fusion, not shown: a dimerising Fc or GST)
chain: B1 chain with P44A, S46P
For B3, in assay [1], the EC50 (nM), cAMP expression assay was determined as 4.8 nM.

B4: GLP-2 mimetibody Pro substitution variant, SEQ ID NO: 45 (Fc fusion, not shown: a dimerising Fc or GST)
chain: B1 chain with P44A, Y51P
As for B4, in assay [1], the EC50 (nM), cAMP expression assay turned out to be 5.8 nM.

B5: A2S GLP-2 IgG4 mimetibody (Fc fusion)
chain: HSDGSFSDEMNTILDNLAARDFINWLIQTKITDGSGGGSGTLVTVSSESKYGPPCPPCPAPEAAGGPSVFLFPPKPDTLMISRTPEVTCVVVDVSQEDPEVQFNWYVDGVEVHNAKTKPREEQFNSTYRVVSVLTVLHQDWLNGKEYKCKVSNKGLPSSIEKTISKAKGQPREPQVYTLPPSQEEMTKNQVSLTCLVKGFYPSDIAVEWESNGQPENNYKTTPPVLDSDGSFFLYSRLTVDKSRWQEGNVFSCSVMHEALHNHYTQKSLSLSLGK
As for B5, the “potency in the cAMP expression assay relative to the corresponding peptide” value in assay [2] was roughly 4 fold less.

B6: A2G GLP-2 mimetibody linker length variant, SEQ ID NO: 7 (Fc fusion, not shown: a dimerising Fc or GST)
chain: HGDGSFSDEMNTILDNLAARDFINWLIQTKITDGGGGSGGGGSCPPCP
modifications: cysteine pairing not given here; also: mimetibody: followed by CH2-CH3 domains not given here
The molecule B6 gave an EC50 (nM), cAMP expression assay in assay [1] of 22.5 nM.

B7: A2G GLP-2 mimetibody linker length variant, SEQ ID NO: 10 (Fc fusion, not shown: a dimerising Fc or GST)
chain: HGDGSFSDEMNTILDNLAARDFINWLIQTKITDGGGGSGGGGSGGGGSGGGGSGGGGSCPPCP
In assay [1], B7 came in with an EC50 (nM), cAMP expression assay of 2.1 nM.

B8: A2G GLP-2 mimetibody linker length variant, SEQ ID NO: 8 (Fc fusion, not shown: a dimerising Fc or GST)
chain: HGDGSFSDEMNTILDNLAARDFINWLIQTKITDGGGGSGGGGSGGGGSCPPCP
modifications: cysteine pairing not given here; also: mimetibody: followed by CH2-CH3 domains not given here
In assay [1], B8 registered an EC50 (nM), cAMP expression assay of 12.7 nM.

B9: A2G GLP-2 mimetibody linker length variant, SEQ ID NO: 9 (Fc fusion, not shown: a dimerising Fc or GST)
chain: HGDGSFSDEMNTILDNLAARDFINWLIQTKITDGGGGSGGGGSGGGGSGGGGSCPPCP
modifications: cysteine pairing not given here; also: mimetibody: followed by CH2-CH3 domains not given here
As to B9, the EC50 (nM), cAMP expression assay in assay [1] came out at 4.6 nM.

B10: A2G GLP-2 mimetibody linker length variant, SEQ ID NO: 6 (Fc fusion, not shown: a dimerising Fc or GST)
chain: HGDGSFSDEMNTILDNLAARDFINWLIQTKITDGGGGSCPPCP
modifications: cysteine pairing not given here; also: mimetibody: followed by CH2-CH3 domains not given here
In turn, B10 showed an EC50 (nM), cAMP expression assay in assay [1] of 40 nM. Turning to HGDGSFSDEMNTILDGQAARDFINWLIQTKITD [GLP-2(A2G, N16G, L17Q)], in assay [2], the “activity in the cAMP expression assay relative to wild type GLP-2” value was determined as 2 fold less. The same measure, in the same setting: under HGDGSFSDEMNTILDNQAARDFINWLIQTKITD [GLP-2(A2G, L17Q)] stands 3 fold less.
